Test results reported in paper PMC11315935, “Multi-layered heterochromatin interaction as a switch for DIM2-mediated DNA methylation” (Nature Communications, 2024).
Positions count from the first letter of the chain named. Names may count otherwise.

B1: DIM2L134A/L139A: DIM2 L134A/L139A double mutation (protein)
chain: MDSPDRSHGGMFIDVPAETMGFQEDYLDMFASVLSQGLAKEGDYAHHQPLPAGKEECLEPIAVATTITPSPDDPQLQLQLELEQQFQTESGLNGVDPAPAPESEDEADLPDGFSDESPDDDFVVQRSKHITVDAPVSTAINPRSTFQRIDENDNLVPPPQSTPERVAVEDLLKAAKAAGKNKEDYIEFELHDFNFYVNYAYHPQEMRPIQLVATKVLHDKYYFDGVLKYGNTKHYVTGMQVLELPVGNYGASLHSVKGQIWVRSKHNAKKEIYYLLKKPAFEYQRYYQPFLWIADLGKHVVDYCTRMVERKREVTLGCFKSDFIQWASKAHGKSKAFQNWRAQHPSDDFRTSVAANIGYIWKEINGVAGAKRAAGDQLFRELMIVKPGQYFRQEVPPGPVVTEGDRTVAATIVTPYIKECFGHMILGKVLRLAGEDAEKEKEVKLAKRLKIENKNATKADTKDDMKNDTATESLPTPLRSLPVQVLEATPIESDIVSIVSSDLPPSENNPPPLTNGSVKPKAKANPKPKPSTQPLHAAHVKYLSQELVNKIKVGDVISTPRDDSSNTDTKWKPTDTDDHRWFGLVQRVHTAKTKSSGRGLNSKSFDVIWFYRPEDTPCCAMKYKWRNELFLSNHCTCQEGHHARVKGNEVLAVHPVDWFGTPESNKGEFFVRQLYESEQRRWITLQKDHLTCYHNQPPKPPTAPYKPGDTVLATLSPSDKFSDPYEVVEYFTQGEKETAFVRLRKLLRRRKVDRQDAPANELVYTEDLVDVRAERIVGKCIMRCFRPDERVPSPYDRGGTGNMFFITHRQDHGRCVPLDTLPPTLRQGFNPLGNLGKPKLRGMDLYCGGGNFGRGLEEGGVVEMRWANDIWDKAIHTYMANTPDPNKTNPFLGSVDDLLRLALEGKFSDNVPRPGEVDFIAAGSPCPGFSLLTQDKKVLNQVKNQSLVASFASFVDFYRPKYGVLENVSGIVQTFVNRKQDVLSQLFCALVGMGYQAQLILGDAWAHGAPQSRERVFLYFAAPGLPLPDPPLPSHSHYRVKNRNIGFLCNGESYVQRSFIPTAFKFVSAGEGTADLPKIGDGKPDACVRFPDHRLASGITPYIRAQYACIPTHPYGMNFIKAWNNGNGVMSKSDRDLFPSEGKTRTSDASVGWKRLNPKTLFPTVTTTSNPSDARMGPGLHWDEDRPYTVQEMRRAQGYLDEEVLVGRTTDQWKLVGNSVSRHMALAIGLKFREAWLGTLYD
modifications: left off: His6, N-terminal, cleaved | MBP, N-terminal, cleaved
notes: DIM2 L134A/L139A double mutation
B2: DIM2N1050A: DIM2 with mutation in the bridging loop (N1050A) (protein)
chain: B1 chain with A134L, A139L, N1050A
modifications: left off: His6, N-terminal, cleaved | MBP, N-terminal, cleaved
B3: DIM2LLR: DIM2 L134A/L139A/R1104A triple mutation (protein)
chain: B1 chain with R1104A
modifications: left off: His6, N-terminal, cleaved | MBP, N-terminal, cleaved
notes: DIM2 L134A/L139A/R1104A triple mutation
B4: HP1W98A: HP1 with H3K9me3-cage mutation W98A (protein)
chain: MPYDPSALSDEEAASSVELDTRSATSSSKKQSRDKKSVKYTIPEPEDFEDEEQNGDGADEGGEDDEEGDEEEEDVYVVEKILDHMLNDDNEPLFLVKAEGYEKKSDQTWEPEDTLIEGASERLKEYFTKIGGREKIFEASAAAQKIKKRGRPSSNSGTPQASSNKRSRKNGDHPLNSEEPQTAKNAAWKPPAGSWEEHIAQLDACEDEDTHKLMVYLTWKNGHKTQHTTDVIYKRCPQKMLQFYERHVRIIKRDPDSEDREGSVSQ
modifications: left off: His6, N-terminal, cleaved | MBP, N-terminal, cleaved
notes: HP1 with H3K9me3-cage mutation W98A

What was measured:
[1] = system: (CTA)12/(TAG)12 36-mer DNA duplex; assay: In vitro DNA methylation assay of DIM2 (WT or mutant); format: biochemical; set-up: DNA methylation activity: unit not given here; conditions: 30 min, pH 8.0
HP1 = assay: Size-exclusion chromatography of DIM2-HP1 complex; format: binding, Neurospora Crassa; conditions: 1.0 µM DIM2 and/or 2.5 µM HP1, Superdex 200 increase 10/300 GL, pH 7.5
Method: For size-exclusion chromatography analysis, 400 µL of the sample mixture containing 1.0 µM DIM2 and/or 2.5 µM HP1 was loaded onto Superdex 200 increase 10/300 GL column (GE Healthcare) and eluted at a flow rate of 0.5 mL/min, in the buffer containing 20 mM Tris-HCl (pH 7.5), 100 mM NaCl, 5% glycerol, and 5 mM DTT. The proteins in each fraction were then visualized by SDS-PAGE.

DIM2 = assay: In vitro DNA methylation assay: effect of HP1 and H3 peptides on DIM2 activity; format: biochemical, Neurospora Crassa; set-up: DNA methylation activity of DIM2 in presence of HP1, WT or W98A: unit not given beside the values; conditions: for DNA methylation activity of DIM2 in presence of HP1, WT or W98A: Sup Fig. 1e, (CTA)12/(TAG)12 DNA duplex, 1.0 µM DIM2, 2 µM HP1, 30 °C, 30 min, pH 8.0
Method: In vitro DNA methylation assay was performed in a 20-µL reaction mixture. For the substrate specificity assay, the following DNA duplexes were used as substrates: CG DNA (Upper strand: 5’-[…]-3’), hemimethylated CG DNA (Upper strand: 5’-TAAATTTXGATTAATAAT-3’, X = 5-methylcytosine; Lower strand: 5’-[…] -3’), CHG DNA (Upper strand: 5’-[…]-3’), and CHH DNA (Upper strand: 5’-[…]-3’). The reaction mixture contains 0.25 µM DIM2, 1.0 µM DNA duplex, 1.0 µM synthesized H3K9me3 peptide (residues 1-24 of H3 plus a C-terminal tryptophan), 0.5 µM HP1, and 0.56 µM S-adenosyl-L-[methyl-^3H] methionine with a specific activity of 18 Ci/mmol (PerkinElmer) in buffer containing 50 mM Tris-HCl (pH 8.0), 100 mM NaCl, 0.05% β-mercaptoethanol, 5% glycerol, and 200 µg/mL BSA. For the rest of the DNA methylation assay, each reaction mixture contains 1.0 µM DIM2, […] methionine with a specific activity of 18 Ci/mmol (PerkinElmer) in buffer containing 50 mM Tris-HCl (pH 8.0), 100 mM NaCl, 0.05% β-mercaptoethanol, 5% glycerol, and 200 µg/mL BSA. In addition, 1.0 µM synthesized H3K9me3 or H3K9me0 peptide (residues 1-24 of H3 plus a C-terminal tryptophan) and/or 2 µM HP1 protein was included to evaluate the effect of H3 and HP1 regulation. The reaction mixture was incubated at 30 °C for 30 min, unless indicated otherwise, before being quenched by the addition of 5 µL of 10 mM cold SAM. After the reaction, 8 μL of the mixtures was loaded onto Hybond N nylon membrane (GE Healthcare), which was left to dry out at room temperature. The membrane was subsequently washed with 0.2 M ammonium bicarbonate (pH 8.2) two times (20 min per time), deionized water (20 min) once, and 95% ethanol (5 min) once. After air dried, the membrane carrying each sample was transferred into a vial containing 3 mL scintillation buffer (Fisher). The tritium scintillation was measured and recorded by a Beckman LS6500 counter. Each the reaction was repeated three times.

[2] = Fig. 2g, in the presence of HP1 (2 µM) and H3_1-24K9me3 peptide (1.0 µM), 1.0 µM DIM2, 30 °C, replicate 1
[3] = Fig. 2g, in the presence of HP1 (2 µM) and H3_1-24K9me3 peptide (1.0 µM), 1.0 µM DIM2, 30 °C, replicate 2
[4] = Fig. 2g, in the presence of HP1 (2 µM) and H3_1-24K9me3 peptide (1.0 µM), 1.0 µM DIM2, 30 °C, replicate 3

Row | Molecule | DNA methylation activity [1, 2] | DNA methylation activity [1, 3] | DNA methylation activity [1, 4] | DIM2-HP1 complex formation (in words) (HP1) | DNA methylation activity of DIM2 (in words) ([1]; 1.0 µM DIM2, 30 °C) | DNA methylation activity ([1]; Fig. 6d, H3_1-24K9me3 binding-associated mutants, 1.0 µM DIM2, 1.0 µM DNA duplex, 30 °C, replicate 1) | DNA methylation activity ([1]; Fig. 6d, H3_1-24K9me3 binding-associated mutants, 1.0 µM DIM2, 1.0 µM DNA duplex, 30 °C, replicate 2) | DNA methylation activity ([1]; Fig. 6d, H3_1-24K9me3 binding-associated mutants, 1.0 µM DIM2, 1.0 µM DNA duplex, 30 °C, replicate 3) | DNA methylation activity of DIM2 in presence of HP1, WT or W98A (DIM2; replicate 1) | DNA methylation activity of DIM2 in presence of HP1, WT or W98A (DIM2; replicate 2) | DNA methylation activity of DIM2 in presence of HP1, WT or W98A (DIM2; replicate 3) | increase of activity-stimulation effect of HP1 on DIM2 (DIM2; W98A vs WT HP1)
1 | B1 | 1.016 | 1.136 | 1.188 | partial disruption of the DIM2-HP1 complex | – | – | – | – | – | – | – | –
2 | B2 | – | – | – | – | marked decrease of the DNA methylation activity | 5.118 | 5.385 | 5.072 | – | – | – | –
3 | B3 | 0.066 | 0.154 | 0.275 | complete disruption of the DIM2-HP1 complex | completely abolished the DNA methylation activity | – | – | – | – | – | – | –
4 | B4 | – | – | – | – | – | – | – | – | 45.423 | 47.119 | 45.142 | ~ 2 fold
